Laboratory results as given in US20190275101.
Where a chain is given by its changes, count along the chain named. Names may count otherwise.

T1: Fluorogenic peptide Glu(EDANS)-GDYELQGPEDLA-Lys(Dabcyl), p48/p41 cleavage site of the HOV polyprotein
T1 chain: EGDYELQGPEDLAK

B1: Houston virus protease (HOV Pro), GII.4 norovirus protease, wild-type (protein)
chain: APPSIWSRIVNFGSGWGFWVSPSLFITSTHVIPQGAKEFFGVPIKQIQVHKSGEFCRLRFPKPIRTDVTGMILEEGAPEGTVVTLLIKRSTGELMPLAARMGTHATMKIQGRTVGGQMGMLLTGSNAKSMDLGTTPGDCGCPYIYKRGNDYVVIGVHTAAARGGNTVICATQGSEGEATLE
B2: HOV Pro R112A mutant (protein)
chain: B1 chain with R112A

Biological target: T1, Fluorogenic peptide …

| Protein | FRET proteolytic activity at pH 8, 6.5 and 5 | kcat/Km, FRET assay at pH 8 | FRET proteolytic activity at pH 6.5 |
| --- | --- | --- | --- |
| B1 | while HOV Pro was active at pH 8, it showed no activity at pH 6.5 and pH 5 | kcat/Km=843.7 M^-1s^-1 | – |
| B2 | – | kcat/Km=1215 M^-1s^-1 | Unlike the wild-type HOV Pro, R112A mutant was active at pH 6.5 |
